Here are results for 32 molecules from patent US20260265385A1 (ANAPTYSBIO, published 2026).

Assay [1] deals with T1, recombinant human IL-2Rβ (extracellular domain, Ala1-Thr215) (human, UniProt P14784 27-240).
T1 construct: extracellular domain; Analyte in SPR; Ala1-Thr215 is counted on the mature protein; also called human LL-2Rβ; Human IL-2RB
T1 sequence (looked up): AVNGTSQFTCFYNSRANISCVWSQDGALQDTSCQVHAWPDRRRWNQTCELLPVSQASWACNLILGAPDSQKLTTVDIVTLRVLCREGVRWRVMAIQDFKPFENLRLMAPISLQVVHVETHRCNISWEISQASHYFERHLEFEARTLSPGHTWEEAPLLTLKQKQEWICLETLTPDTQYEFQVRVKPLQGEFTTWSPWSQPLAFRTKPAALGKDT
As to the kind of experiment: SPR, antibody captured on Protein A chip. As to the method: (§1) Surface plasmon resonance (SPR) was used to determine the binding affinities. The M6-1625 and M10-1275 antibodies were captured onto a Cytiva Protein A Chip for 60 seconds at 0.5 μg/mL for 60 seconds. The antibodies were exposed to recombinant human LL-2Rβ or cynomolgus LL-2Rβ (corresponding to residues Ala1-Thr215 of the extracellular domains excluding the signal peptide) at typical concentrations ranging from 0.4 nM to 11 nM with typical 300 second associations and 1200 second dissociations using a BiacoreS200 instrument. Sensorgrams were fit globally using a 1:1 binding model in the Biacore T200 Evaluation Software to calculate on- and off-rates and KD values.
(In general: SPR reads the build-up and loss of mass on a sensor chip optically.)

Assay [2] deals with T2, recombinant cynomolgus IL-2Rβ (extracellular domain, Ala1-Thr215) (cynomolgus, UniProt Q38J85 27-240).
T2 construct: extracellular domain; Analyte in SPR; also called cynomolgus LL-2Rβ; Cyno IL-2RB
T2 sequence (looked up): T1 sequence (looked up) with Q7R, A66T, T74A, L83M, V92M, E127K, L158M
Nature of the assay: SPR, antibody captured on Protein A chip. On the procedure:
as §1

Positions count from the first letter of the chain named.

B1: APE14970 (antibody, V domains shown)
VH: EVQLVQSGAEVKKPGATVKISCKVSGFNFKDSLMHWVQQAPGKGLEWMGWIDSENGETEYAPGFQDRVTITADTSTDTAYMELSSLRSEDTAVYYCARGGPWFLSYWGQGTTVTVSS
VL: EIVMTQSPATLSVSPGERATLSCRASQIISNNLHWYQQKPGQAPRLLIIYGLQSISGIPARFSGSRSGTEFTLTISSLQSEDFAVYFCQQSNNWPWTFGQGTKLEIKR
notes: M10-1275 series
Usually Kd stands for the constant that tells how readily two partners part at equilibrium. In the case of B1, the Kd in assay [1] worked out at 0.074 nM; in assay [2] it was 0.014 nM.

B2: APE14971 (antibody, V domains shown)
VH: B1 VH
VL: B1 VL with I49Y, R66G, F87Y
notes: M10-1275 series
For the molecule B2, the Kd in assay [1] was found to be 0.278 nM; in assay [2], 0.026 nM.

B3: APE15036 (antibody, V domains shown)
VH: B1 VH with M34V
VL: B1 VL
notes: M10-1275 series
Take B3: the dissociation constant (Kd) in assay [1] came out at 0.165 nM; in assay [2], 0.0195 nM.

B4: APE15033 (antibody, V domains shown)
VH: B1 VH with N55Q
VL: B1 VL
notes: M10-1275 series
As for B4, the Kd in assay [1] amounted to 0.106 nM; in assay [2] it was 0.0128 nM.

B5: APE14969 (antibody, V domains shown)
VH: B1 VH
VL: B1 VL with R66G
notes: M10-1275 series
For B5, the values for the Kd in assay [1] and in assay [2] were 0.187 nM and 0.018 nM, respectively.

B6: APE15035 (antibody, V domains shown)
VH: B1 VH with N55S
VL: B1 VL
notes: M10-1275 series
As to B6, the Kd in assay [1] is 0.147 nM; in assay [2], 0.0194 nM.

B7: APE15032 (antibody, V domains shown)
VH: B1 VH with N55A
VL: B1 VL
notes: M10-1275 series
As to B7, the results for the Kd in assay [1] and in assay [2] were 0.0738 nM and 0.0124 nM, respectively.

B8: APE15034 (antibody, V domains shown)
VH: B1 VH with N55T
VL: B1 VL
notes: M10-1275 series
As to B8, the Kd in assay [1] turned out to be 0.19 nM; in assay [2], 0.0222 nM.

B9: APE15031 (antibody, V domains shown)
VH: B1 VH with N55H
VL: B1 VL
notes: M10-1275 series
Regarding B9, the Kd in assay [1] is 0.108 nM; in assay [2] it was 0.0189 nM.

B10: APE15277 (antibody, V domains shown)
VH: QVQLVQSGAEVKKPGASVKVSCKASGYTFISYWIQWVRQAPGQGLEWMGEILPGSGSINHNEKFQGRVTMTRDTSTSTVYMELSSLRSEDTAVYYCTRHYGSFDYWGQGTTVTVSS
VL: DIQMTQSPSSLSASVGDRVTITCKASQNVGTDVAWYQQKPGKAPKSLIYSASYRYSGVPSRFSGSGSGTDFTLTISSLQPEDFATYFCHQYESYPFTFGQGTKLEIKR
notes: M6-p1625 series
B10: the results for the Kd in assay [1] and in assay [2] were 0.229 nM and 0.244 nM, respectively.

B11: APE15288 (antibody, V domains shown)
VH: B10 VH with T28S, I30R, S31R, Y32H
VL: B10 VL
notes: M6-p1625 series
Consider B11, for which the figures for the Kd in assay [1] and in assay [2] were 0.172 nM and 0.199 nM, respectively.

B12: APE15300 (antibody, V domains shown)
VH: B10 VH with T28A, I30V, S31D, Y32N
VL: B10 VL
notes: M6-p1625 series
As to B12, the dissociation constant (Kd) is 1.41 nM in assay [1] and 1.16 nM in assay [2].

B13: APE15279 (antibody, V domains shown)
VH: B10 VH with I30T, Y32Q, Q35E
VL: B10 VL
notes: M6-p1625 series
Consider B13, for which the results for the dissociation constant (Kd) in assay [1] and in assay [2] were 0.522 nM and 0.533 nM, respectively.

B14: APE15371 (antibody, V domains shown)
VH: B10 VH with V18I, I30S, S31R
VL: B10 VL
notes: M6-p1625 series
As to B14, the Kd is 0.0917 nM in assay [1] and 0.0821 nM in assay [2].

B15: APE15293 (antibody, V domains shown)
VH: B10 VH with I30S, Y32H
VL: B10 VL
notes: M6-p1625 series
As to B15, the Kd is 0.351 nM in assay [1] and 0.359 nM in assay [2].

B16: APE15280 (antibody, V domains shown)
VH: B10 VH with I30S, S31R, Y32Q, Q35E
VL: B10 VL
notes: M6-p1625 series
As for B16, the Kd in assay [1] came to 0.161 nM; in assay [2], 0.202 nM.

B17: APE15297 (antibody, V domains shown)
VH: B10 VH with T28S, S31I, Y32H
VL: B10 VL
notes: M6-p1625 series
On to B17, for which the results for the Kd in assay [1] and in assay [2] were 0.157 nM and 0.153 nM, respectively.

B18: APE15368 (antibody, V domains shown)
VH: B10 VH with A24V, I30T, S31R, Y32F
VL: B10 VL
notes: M6-p1625 series
For the molecule B18, the dissociation constant (Kd) in assay [1] came out at 0.0867 nM; in assay [2] it was 0.0783 nM.

B19: APE15369 (antibody, V domains shown)
VH: B10 VH with V18I, I30T, S31R, Y32F
VL: B10 VL
notes: M6-p1625 series
As for B19, the Kd in assay [1] was 0.0674 nM; in assay [2], 0.0634 nM.

B20: APE15290 (antibody, V domains shown)
VH: B10 VH with T28P, I30T
VL: B10 VL
notes: M6-p1625 series
As to B20, the results for the Kd in assay [1] and in assay [2] were 0.261 nM and 0.305 nM, respectively.

B21: APE15285 (antibody, V domains shown)
VH: B10 VH with T28I, I30A, Y32N
VL: B10 VL
notes: M6-p1625 series
Take B21: the figures for the dissociation constant (Kd) in assay [1] and in assay [2] were 0.31 nM and 0.327 nM, respectively.

B22: APE15292 (antibody, V domains shown)
VH: B10 VH with S31T, Q35E
VL: B10 VL
notes: M6-p1625 series
With B22, the Kd worked out at 0.376 nM in assay [1] and 0.437 nM in assay [2].

B23: APE15299 (antibody, V domains shown)
VH: B10 VH with T28S, I30S, S31K, Y32H
VL: B10 VL
notes: M6-p1625 series
On to B23, for which the figures for the Kd in assay [1] and in assay [2] were 0.348 nM and 0.39 nM, respectively.

B24: APE15283 (antibody, V domains shown)
VH: B10 VH with T28K, I30S
VL: B10 VL
notes: M6-p1625 series
Turning to B24, the figures for the Kd in assay [1] and in assay [2] were 0.312 nM and 0.318 nM, respectively.

B25: APE15278 (antibody, V domains shown)
VH: B10 VH with I30S, S31R, Q35E, L52S, S55V, G56D, S57T
VL: B10 VL
notes: M6-p1625 series
As to B25, the Kd came to 0.334 nM in assay [1] and 0.488 nM in assay [2].

B26: APE15287 (antibody, V domains shown)
VH: B10 VH with T28K, I30S, S31R
VL: B10 VL
notes: M6-p1625 series
As to B26, the dissociation constant Kd came to 0.169 nM in assay [1] and 0.186 nM in assay [2].

B27: APE15370 (antibody, V domains shown)
VH: B10 VH with A24V, I30S, S31R
VL: B10 VL
notes: M6-p1625 series
As for B27, the values for the Kd in assay [1] and in assay [2] were 0.11 nM and 0.0982 nM, respectively.

B28: APE15284 (antibody, V domains shown)
VH: B10 VH with I30G, S31R
VL: B10 VL
notes: M6-p1625 series
B28: the equilibrium dissociation constant (Kd) in assay [1] is 0.0566 nM; in assay [2], 0.0705 nM.

B29: APE15291 (antibody, V domains shown)
VH: B10 VH with I30A, S31R, Y32H, Q35G
VL: B10 VL
notes: M6-p1625 series
Regarding B29, the dissociation constant Kd in assay [1] is 1.98 nM; in assay [2] it was 2.68 nM.

B30: APE15298 (antibody, V domains shown)
VH: B10 VH with T28I, I30S, S31R, G56V
VL: B10 VL
notes: M6-p1625 series
Turning to B30, the Kd in assay [1] is 0.0981 nM; in assay [2], 0.132 nM.

B31: APE15296 (antibody, V domains shown)
VH: B10 VH with T28R, I30S, S31T, Y32Q, Q35E
VL: B10 VL
notes: M6-p1625 series
Regarding B31, the Kd came to 0.851 nM in assay [1] and 0.825 nM in assay [2].

B32: APE15286 (antibody, V domains shown)
VH: B10 VH with T28L, I30S, S31R
VL: B10 VL
notes: M6-p1625 series
On to B32, for which the Kd in assay [1] is 0.0873 nM; in assay [2] it was 0.104 nM.
